Publication doi:10.1101/2025.05.05.652248
Like-named read-outs stand apart in the source and are kept apart here.

Assays:
[1] = target: MA2561 (AmzR, Archaeal Metabolite-sensing Zipper-like Regulator) of Methanosarcina acetivorans (Methanosarcina acetivorans); assay: non-reducing SDS-PAGE
[2] = target: MA2561 (AmzR, Archaeal Metabolite-sensing Zipper-like Regulator) of Methanosarcina acetivorans (Methanosarcina acetivorans); assay: non-reducing SDS-PAGE; remark: listed apart in the source

- stoichiometry N [1]: 4
- stoichiometry N [2]: 2
Substance: MA2561 (AmzR, Archaeal Metabolite-sensing Zipper-like Regulator) of Methanosarcina acetivorans (natural protein)
